Measured values reported in paper PMC7337490, “Molecular basis of MKLP2-dependent Aurora B transport from chromatin to the anaphase central spindle” (The Journal of Cell Biology, 2020).
Square brackets hold non-standard residues; d marks the D form. Ends that are not written are not given here. pT = C[C@@H](OP(=O)(O)O)[C@H](N)C(=O)O

B1: GFP-MKLP2 Δ636-652 (natural protein, human, UniProt O95235 1-890, looked up)
chain: MSQGILSPPAGLLSDDDVVVSPMFESTAADLGSVVRKNLLSDCSVVSTSLEDKQQVPSEDSMEKVKVYLRVRPLLPSELERQEDQGCVRIENVETLVLQAPKDSFALKSNERGIGQATHRFTFSQIFGPEVGQASFFNLTVKEMVKDVLKGQNWLIYTYGVTNSGKTHTIQGTIKDGGILPRSLALIFNSLQGQLHPTPDLKPLLSNEVIWLDSKQIRQEEMKKLSLLNGGLQEEELSTSLKRSVYIESRIGTSTSFDSGIAGLSSISQCTSSSQLDETSHRWAQPDTAPLPVPANIRFSIWISFFEIYNELLYDLLEPPSQQRKRQTLRLCEDQNGNPYVKDLNWIHVQDAEEAWKLLKVGRKNQSFASTHLNQNSSRSHSIFSIRILHLQGEGDIVPKISELSLCDLAGSERCKDQKSGERLKEAGNINTSLHTLGRCIAALRQNQQNRSKQNLVPFRDSKLTRVFQGFFTGRGRSCMIVNVNPCASTYDETLHVAKFSAIASQLVHAPPMQLGFPSLHSFIKEHSLQVSPSLEKGAKADTGLDDDIENEADISMYGKEELLQVVEAMKTLLLKERQEKLQLEMHLRDEICNEMVEQMQQREQWCSEHLDTQKELLEEMYEEKLNILKESLTSALLQEARQQSVAHQQSGSELALRRSQRLAASASTQQLQEVKAKLQQCKAELNSTTEELHKYQKMLEPPPSAKPFTIDVDKKLEEGQKNIRLLRTELQKLGESLQSAERACCHSTGAGKLRQALTTCDDILIKQDQTLAELQNNMVLVKLDLRKKAACIAEQYHTVLKLQGQVSAKKRLGTNQENQQPNQQPPGKKPFLRNLLPRTPTCQSSTDCSPYARILRSRRSPLLKSGPFGKKY
notes: source: HeLa, transfected, in lysate; not shown: EGFP, N-terminal, kept
B2: borealin^10-109 (domain or fragment, human, UniProt Q53HL2 10-109, looked up)
chain: VAKTNSLRRRKLASFLKDFDREVEIRIKQIESDRQNLLKEVDNLYNIEILRLPKALREMNWLDYFALGGNKQALEEAATADLDITEINKLTAEAIQTPLK
notes: borealin, human, residues 10-109; Subunit in the rows of two; source: E. coli BL21-CodonPlus (DE3)-RIL, co-expressed with survivin (pETDuet-1), purified within the complex
B3: INCENP^1-80 (recombinant) (domain or fragment, human, UniProt Q9NQS7 1-80, looked up)
chain: MGTTAPGPIHLLELCDQKLMEFLCNMDNKDLVWLEEIQEEAERMFTREFSKEPELMPKTPSQKNRRKKRRISYVQDENRD
notes: INCENP, human, residues 1-80; Subunit in the rows of two; also called I^80; source: E. coli BL21-CodonPlus (DE3)-RIL, purified within the complex; not shown: His6, N-terminal, cleaved; GST, N-terminal, cleaved
B4: MKLP2^557-668 (domain or fragment, human, UniProt O95235 557-668, looked up)
chain: MYGKEELLQVVEAMKTLLLKERQEKLQLEMHLRDEICNEMVEQMQQREQWCSEHLDTQKELLEEMYEEKLNILKESLTSFYQEEIQERDEKIEELEALLQEARQQSVAHQQS
notes: source: E. coli BL21-CodonPlus (DE3)-RIL, purified (Glutathione Sepharose, SEC); not shown: His6, N-terminal, cleaved; GST, N-terminal, cleaved
B5: H3pT3 (1–12) phosphopeptide (peptide)
peptide: AR[pT]KQTARKSTG
notes: also called pH3T3; H3pT3 phosphopeptide; source: synthetic peptide (Peptide Protein Research Ltd)
B6: H3 (1–12) peptide (peptide)
peptide: ARTKQTARKSTG
notes: histone H3 residues 1-12; also called H3T3 nonphosphopeptide; nonphosphorylated H3 peptide; source: synthetic peptide (Peptide Protein Research Ltd)

What was measured:
[1] = biological target: the molecule itself; test: SEC; 1 mg lysate of nocodazole-arrested HeLa cells on Superose 6 10/300 at 4°C; fractions Western blotted for MKLP2 and GFP; size from calibration standards
[2] = biological target: T1, survivin (full-length, recombinant, as subunit of the CPI complexes) (human, UniProt O15392 1-142); test: SEC-MALS; samples at 1 mg/ml on Superose 6 10/300 GL, room temperature; 100 mM NaCl, 20 mM Tris-HCl pH 8.0, 1 mM DTT, 10% glycerol; conditions: both partners purified
T1 construct: survivin, human, full length; Never handled alone; stands for the subunit in the rows of two; source: E. coli BL21-CodonPlus (DE3)-RIL, co-expressed with borealin (pETDuet-1), purified within the complex

borealin^10-109 = biological target: B2; test: as above; conditions: both partners purified
[3] = biological target: the molecule itself; test: as above
[4] = biological target: T2, CPI80^(Survivin E65A-H80A) (human, UniProt O15392 1-142; Q9NQS7 1-80; Q53HL2 10-109, E65A | H80A); test: SEC; CPC variants and MKLP2^557-668 mixed 1:1, 30 min on ice in 100 mM NaCl, 20 mM Tris-HCl pH 8.0, 1 mM DTT, 10% glycerol; analytical Superdex 200 increase 10/300 at 4°C; fractions on stained gels; conditions: both partners purified
T2 construct: survivin, human, E65A H80A; INCENP, human, residues 1-80; borealin, human, residues 10-109 as in CPI80; not restated for this mutant; also called CPI80^E65A-H80A; survivin^E65A-H80A CPI80; source: E. coli BL21-CodonPlus (DE3)-RIL, purified (Glutathione Sepharose, SEC); not shown: His6, N-terminal, cleaved; GST, N-terminal, cleaved; copies: + +

[5] = biological target: CPI58 as used in ITC, SEC and ATPase assays (survivin, borealin, INCENP 1–58) (human, UniProt O15392 1-142; Q9NQS7 1-58; Q53HL2 1-280); test: ITC; 400 µM peptide injected into 50 µM protein; 100 mM NaCl, 20 mM Tris-HCl pH 7.2, 1 mM DTT; 25°C; 1:1 binding model; conditions: both partners purified
[6] = biological target: T3, MKLP2^557-668:CPI80 (survivin, INCENP^1-80, borealin^10-109) (human, UniProt O95235 557-668; O15392 1-142; Q9NQS7 1-80; Q53HL2 10-109); test: as above; conditions: both partners purified
T3 construct: survivin, human; INCENP, human, residues 1-80; borealin, human, residues 10-109; also called MKLP2:CPI80; not shown: His6, N-terminal, cleaved; GST, N-terminal, cleaved; copies: 2 + 2 + 2 + 2

[7] = biological target: T4, CPI80 (survivin, INCENP^1-80, borealin^10-109) (human, UniProt O15392 1-142; Q9NQS7 1-80; Q53HL2 10-109); test: as above; conditions: both partners purified
T4 construct: survivin, human; INCENP, human, residues 1-80; borealin, human, residues 10-109; 1:1:1 trimer by SEC-MALS; also called WT CPI80; source: E. coli BL21-CodonPlus (DE3)-RIL, purified (Glutathione Sepharose, SEC); not shown: His6, N-terminal, cleaved; GST, N-terminal, cleaved; copies: 1 + 1 + 1

[8] = biological target: T5, CPI80^RRKKRR (CPI80 with the INCENP RRKKRR-motif replaced with alanine residues) (human, UniProt O15392 1-142; Q9NQS7 1-80; Q53HL2 10-109, RRKKRR to hexa-alanine); test: as above; conditions: both partners purified
T5 construct: survivin, human; INCENP, human, residues 1-80 with RRKKRR to hexa-alanine; borealin, human, residues 10-109 as in CPI80; not restated for this mutant; also called CPI80^RRKKRR mutant; source: E. coli BL21-CodonPlus (DE3)-RIL, purified (Glutathione Sepharose, SEC); not shown: His6, N-terminal, cleaved; GST, N-terminal, cleaved; copies: + +

[9] = biological target: CPI58 as used in ITC, SEC and ATPase assays (survivin, borealin, INCENP 1–58) (human, UniProt O15392 1-142; Q9NQS7 1-58; Q53HL2 1-280, Structural Zn2+ on survivin C57/C60/H77/C84. Survivin is taken from the authors' construct entity (entity number = survivin number + 2; leading GP tag scar left out). Borealin 10-109 is inferred from); test: as above; conditions: both partners purified
CPI58 as used in ITC, SEC and ATPase assays (survivin, borealin, INCENP 1–58) (human, UniProt O15392 1-142; Q9NQS7 1-58; Q53HL2 1-280, Structural Zn2+ on survivin C57/C60/H77/C84. Survivin is taken from the authors' construct entity (entity number = survivin number + 2; leading GP tag scar left out). Borealin 10-109 is inferred from), sequence (A2SUH6 whole entry, chain 1 of 3, one chain of several): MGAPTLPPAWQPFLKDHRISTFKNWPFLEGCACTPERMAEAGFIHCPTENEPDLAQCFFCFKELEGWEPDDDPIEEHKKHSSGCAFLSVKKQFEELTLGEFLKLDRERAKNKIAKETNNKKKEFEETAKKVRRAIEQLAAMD

T1 sequence (O15392 whole entry, one chain of several): as the sequence (A2SUH6 whole entry, chain 1 of 3, one chain of several) above
T4 sequence (O15392 whole entry, chain 1 of 3, one chain of several, the tested form may be a part): as the sequence (A2SUH6 whole entry, chain 1 of 3, one chain of several) above
T5 sequence (O15392 whole entry, change not shown, chain 1 of 3, one chain of several, the tested form may be a part): as the sequence (A2SUH6 whole entry, chain 1 of 3, one chain of several) above
T5 sequence (Q9NQS7 other isoform, or with tags, fused parts or gaps RRKKRR to hexa-alanine | RRKKRR to hexa-alanine, chain 2 of 3, one chain of several): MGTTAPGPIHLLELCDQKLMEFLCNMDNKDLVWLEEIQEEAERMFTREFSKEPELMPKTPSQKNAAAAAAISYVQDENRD
T2 sequence (O15392 whole entry E65A/H80A, the tested form may be a part, one chain of several): as the sequence (A2SUH6 whole entry, chain 1 of 3, one chain of several) above, with E65A, H80A counted along it

Row | Binder | stoichiometry N [2] | Kd [6] | Kd [7] | Kd [8] | other results
1 | B1 | – | – | – | – | stoichiometry N [1]: 2
2 | B2 | 1 | – | – | – | –
3 | B3 | 1 | – | – | – | stoichiometry N (borealin^10-109): 1
4 | B4 | – | – | – | – | stoichiometry N [3]: 2; binding result [4]: binds
5 | B5 | – | < 1000 nM | 1100 nM | 600 ± 300 nM | Kd [5]: 800 nM
6 | B6 | – | 2800 ± 300 nM | 4600 nM | 3300 ± 500 nM | Kd [9]: 5600 nM
